# Biological target: the molecule itself
# Experiment: native gel, in-gel butyrylcholinesterase activity staining of mouse serum (self-association: dimer, tetramer)
protein,measurement,value
"human butyrylcholinesterase (hBChE) expressed from AAV8.UbC.hIL2.BChE C1.IRES.PRIMA1.SV40 vector (enzyme, Secreted into the serum of vector-injected RAG KO mice; also called hBuChE; Hu BChE) HTEDDIIIATKNGKVRGMNLTVFGGTVTAFLGIPYAQPPLGRLRFKKPQSLTKWSDIWNATKYANSCCQNIDQSFPGFHGSEMWNPNTDLSEDCLYLNVWIPAPKPKNATVLIWIYGGGFQTGTSSLHVYDGKFLARVERVIVVSMNYRVGALGFLALPGNPEAPGNMGLFDQQLALQWVQKNIAAFGGNPKSVTLFGESAGAASVSLHLLSPGSHSLFTRAILQSGSFNAPWAVTSLYEARNRTLNLAKLTGCSRENETEIIKCLRNKDPQEILLNEAFVVPYGTPLSVNFGPTVDGDFLTDMPDILLELGQFKKTQILVGVNKDEGTAFLVYGAPGFSKDNNSIITRKEFQEGLKIFFPGVSEFGKESILFHYTDWVDDQRPENYREALGDVVGDYNFICPALEFTKKFSEWGNNAFFYYFEHRSSKLPWPEWMGVMHGYEIEFVFGLPLERRDNYTKAEEILSRSIVKRWANFAKYGNPNETQNNSTSWPVFKSTEQKYLTLNTESTRIMTKLRAQQCRFWTSFFPKVLEMTGNIDEAEWEWKAGFHRWNNYMMDWKNQFNDYTSKKESCVGL",binding result,binds

# From patent US20190144884A1 (University of Pennsylvania, published 2019)
